Assay results reported in US11866467.

How the values were obtained:
[1] = biological target: TGF-β receptor (type I and II receptors) on mouse cells (MFB-F11 fibroblasts, mouse splenocytes, mouse CD4+ T cells) (mouse) (UniProt Q64729); assay: cell-based or functional assay
[2] = biological target: TGF-β receptor on human peripheral blood CD4+ T cells (human) (UniProt P36897); assay: cell-based or functional assay
Sequence of UniProt P36897 (P36897 34-503, chain 1 of 2): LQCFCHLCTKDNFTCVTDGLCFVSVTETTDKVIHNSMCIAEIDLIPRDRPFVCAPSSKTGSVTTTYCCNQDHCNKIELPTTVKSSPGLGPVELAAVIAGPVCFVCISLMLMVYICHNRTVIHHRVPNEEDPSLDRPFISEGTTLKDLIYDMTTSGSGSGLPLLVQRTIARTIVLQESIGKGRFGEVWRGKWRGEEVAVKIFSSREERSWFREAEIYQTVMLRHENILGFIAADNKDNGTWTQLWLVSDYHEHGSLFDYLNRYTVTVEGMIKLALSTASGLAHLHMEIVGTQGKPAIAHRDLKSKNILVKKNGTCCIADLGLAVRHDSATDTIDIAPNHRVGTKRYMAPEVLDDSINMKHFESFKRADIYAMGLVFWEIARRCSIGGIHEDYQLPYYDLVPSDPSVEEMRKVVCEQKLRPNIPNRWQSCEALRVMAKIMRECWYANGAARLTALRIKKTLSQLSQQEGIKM
Sequence of UniProt P36897 (P37173 23-567, chain 2 of 2, further chain): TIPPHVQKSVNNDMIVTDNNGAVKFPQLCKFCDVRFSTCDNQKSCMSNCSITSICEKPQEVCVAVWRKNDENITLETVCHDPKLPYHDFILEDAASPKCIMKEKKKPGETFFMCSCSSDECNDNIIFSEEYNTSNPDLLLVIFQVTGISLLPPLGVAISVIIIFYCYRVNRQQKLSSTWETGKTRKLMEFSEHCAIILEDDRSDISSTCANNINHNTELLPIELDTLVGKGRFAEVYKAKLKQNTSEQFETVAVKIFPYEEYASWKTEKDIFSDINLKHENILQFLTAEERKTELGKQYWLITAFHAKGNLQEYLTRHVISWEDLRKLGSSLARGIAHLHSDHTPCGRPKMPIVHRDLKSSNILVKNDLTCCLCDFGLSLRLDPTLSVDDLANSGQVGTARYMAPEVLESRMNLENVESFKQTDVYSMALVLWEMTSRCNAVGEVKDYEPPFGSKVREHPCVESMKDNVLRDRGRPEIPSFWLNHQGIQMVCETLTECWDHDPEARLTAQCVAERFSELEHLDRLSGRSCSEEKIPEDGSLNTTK

Sequence of UniProt Q64729 (Q64729 30-503, chain 1 of 2): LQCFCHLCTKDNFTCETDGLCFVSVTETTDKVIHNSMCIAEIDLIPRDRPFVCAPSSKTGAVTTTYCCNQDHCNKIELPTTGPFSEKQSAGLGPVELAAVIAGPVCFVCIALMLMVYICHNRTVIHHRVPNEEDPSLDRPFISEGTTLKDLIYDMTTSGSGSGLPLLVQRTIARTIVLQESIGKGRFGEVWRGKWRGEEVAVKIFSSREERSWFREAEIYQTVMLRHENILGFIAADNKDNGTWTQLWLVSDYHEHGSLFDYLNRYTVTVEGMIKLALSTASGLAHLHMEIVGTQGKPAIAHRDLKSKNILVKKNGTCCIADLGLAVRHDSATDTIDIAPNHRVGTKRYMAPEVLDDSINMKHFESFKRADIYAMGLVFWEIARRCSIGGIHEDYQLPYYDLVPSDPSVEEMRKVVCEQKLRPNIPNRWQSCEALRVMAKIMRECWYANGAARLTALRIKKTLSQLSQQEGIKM
Sequence of UniProt Q64729 (Q62312 24-567, chain 2 of 2, further chain): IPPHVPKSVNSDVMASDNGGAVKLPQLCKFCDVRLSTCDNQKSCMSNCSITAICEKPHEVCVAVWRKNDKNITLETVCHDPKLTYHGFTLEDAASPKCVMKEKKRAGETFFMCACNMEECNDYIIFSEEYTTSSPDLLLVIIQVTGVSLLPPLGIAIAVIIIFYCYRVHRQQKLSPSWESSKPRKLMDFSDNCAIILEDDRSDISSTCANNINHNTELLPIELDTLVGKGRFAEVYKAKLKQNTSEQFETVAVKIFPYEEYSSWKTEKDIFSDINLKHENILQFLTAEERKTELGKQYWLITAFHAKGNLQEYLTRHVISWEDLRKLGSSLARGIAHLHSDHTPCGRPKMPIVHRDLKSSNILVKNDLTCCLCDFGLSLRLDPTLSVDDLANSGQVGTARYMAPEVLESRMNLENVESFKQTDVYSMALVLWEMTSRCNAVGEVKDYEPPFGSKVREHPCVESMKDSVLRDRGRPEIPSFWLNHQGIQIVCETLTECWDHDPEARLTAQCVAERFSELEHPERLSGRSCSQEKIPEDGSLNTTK

Q: Which Foxp3+ Treg conversion, % of all mouse CD4+ cells at 38.1 ng/ml (0.78 nM) [1] does the source give for “H. polygyrus TGF-β Mimic (TGM), purified recombinant protein with hexa-histidine C-terminal tag (ligand)” here?
A: 90.7%

Q: What about the MFB-F11 reporter cells, alkaline phosphatase, OD405 at 100 ng/ml (maximum signal) [1] of the same substance?
A: 2.46 OD405

Q: What about the CD4+CD25+Foxp3+ Treg among human CD4+ T cells, maximum [2] of the same substance?
A: 84%

Q: Which results are given for “recombinant human TGF-β1 (R&D Systems) (from UniProt P01137 279-390) (ligand)”?
A: Foxp3+ Treg conversion, % of all mouse CD4+ cells at 10 ng/ml (0.78 nM monomeric hTGF-β1) [1]: 79.7%; MFB-F11 reporter cells, alkaline phosphatase, OD405 at 100 ng/ml (maximum signal) [1]: 1.48 OD405
